Measurements as given in patent US20250290928A1, “METHOD, KIT AND DEVICE FOR DETECTING EXTRACELLULAR VESICLES” (priority 2022, published 2025).
No end group written: not given here. *: point of attachment. 5FAM = O=C1OC2(c3ccc(O)cc3Oc3cc(O)ccc32)c2ccc(C(=O)*)cc21; TQ2 = quencher; TQ3 = quencher

What was measured:
[1] = tested on: MMP in the MDA-MB-231-derived extracellular vesicles; experiment: Evaluation of MMP activity of MDA-MB-231-derived extracellular vesicles with 96-well plate (SensoLyte 520 MMP Substrate Sampler Kit); format: biochemical, Human; settings: MP, EV 3.3 μg/mL
Method: 50 μL of the MMP detection solution was added to 50 μL of each of the samples, a reaction was performed at 30° C., and MMP activity was evaluated.
50 μL of each of the MMP detection solutions was added to 50 μL of each of the samples, a reaction was performed at 30° C., and MMP activity was evaluated.

[2] = molecular target: T1, MMP14 in the MDA-MB-231-derived extracellular vesicles (Homo sapiens, UniProt P50281); experiment: Digital detection of MDA-MB-231-derived extracellular vesicles through MMP14 activity in liquid droplets; format: biochemical
T1 construct: in terms of intact MMP14 with a molecular weight of 70 kDa
Method: The concentration of the solution is 5 μg/mL.
Liquid droplets were prepared by a pumping method of an SPG emulsification membrane through use of the reaction solution for forming liquid droplets prepared in the foregoing. A dispersed phase and a continuous phase are shown below.
An SPG pumping connector (pore diameter: 10 μm, pore diameter: 5 μm, manufactured by SPG Technology Co., Ltd.) was used as the SPG emulsification membrane, and the number of times of pumping reciprocations was set to 10. Thus, liquid droplets each having a diameter of from about 1 μm to about 10 μm were obtained.
The emulsified liquid prepared in the foregoing were subjected to a reaction through incubation at 37° C. to promote the generation of fluorescence.
Next, the images acquired with an SPG pumping connector with a pore diameter of 10 μm were analyzed in the same manner as in Example 19. The above-mentioned fluorescence microscope images after 4 hours of reaction were subjected to predetermined image processing to provide a particle diameter distribution of the liquid droplets shown in FIG. 67, and obtain a histogram representing the number of liquid droplets each showing a fluorescence intensity included in each fraction of fluorescence intensity obtained by dividing fluorescence intensities into intervals of a constant value in each particle diameter range.
Further, when the concentration of the extracellular vesicles having MMP14 activity was calculated through use of the above-mentioned equation (1) from the total number of liquid droplets in each particle diameter range and the number of positive liquid droplets identified from the histogram, the concentration was able to be estimated as described below.

[3] = Example 32, 4 h, droplet diameter 3-4 μm
[4] = Example 32, 4 h, droplet diameter 4-5 μm
[5] = Example 32, 4 h, droplet diameter 5-6 μm
[6] = Example 32, 4 h, droplet diameter 6-7 μm
[7] = Example 32, 4 h, droplet diameter 7-8 μm
[8] = Example 32, 4 h, droplet diameter <3 μm
[9] = Example 32, 4 h, droplet diameter >8 μm

TAMRA-GGPLGLAGGK(TQ3) ({TAMRA}-GGPLGLAGGK(TQ3)) [Custom #2T]
Fluorescence change after 2 hours of reaction at 30° C. ([1]; 1.25 μM Custom #2T with 1.25 μM SB2): 1,319 ΔRFU | Fluorescence change after 2 hours of reaction at 30° C. ([1]; 1.25 μM Custom #2T with 1.25 μM SB6): 1,527 ΔRFU | Fluorescence change after 2 hours of reaction at 30° C. ([1]; 1.25 μM Custom #2T with 1.25 μM SB7): 626 ΔRFU | Fluorescence change after 2 hours of reaction at 30° C. ([1]; 1.25 μM Custom #2T with 1.25 μM SB9): 469 ΔRFU | Fluorescence change after 2 hours of reaction at 30° C. ([1]; 1.25 μM Custom #2T with 1.25 μM SB10): 1,030 ΔRFU | Fluorescence change after 2 hours of reaction at 30° C. ([1]; 5 μM Custom #2T with 5 μM SB2): 710 ΔRFU | Fluorescence change after 2 hours of reaction at 30° C. ([1]; 5 μM Custom #2T with 5 μM SB6): 1,161 ΔRFU | Fluorescence change after 2 hours of reaction at 30° C. ([1]; 5 μM Custom #2T with 5 μM SB7): 288 ΔRFU | Fluorescence change after 2 hours of reaction at 30° C. ([1]; 5 μM Custom #2T with 5 μM SB9): 153 ΔRFU | Fluorescence change after 2 hours of reaction at 30° C. ([1]; 5 μM Custom #2T with 5 μM SB10): 592 ΔRFU

[5-FAM]GRIGFLRTAK(TQ2)[OH] (5FAM-GRIGFLRTAK(TQ2)-OH) [Custom #1]
Extracellular vesicle concentration ([2]; Example 32): 1.9×10^9 /μg of protein | Concentration (extracellular vesicles having MMP14 activity) [2, 3]: 1.06e+10 mL⁻¹ | Expected value λ [2, 3]: 0.217 | Number of positives [2, 3]: 15 | Positive ratio [2, 3]: 0.195 | Concentration (extracellular vesicles having MMP14 activity) [2, 4]: 9.05e+09 mL⁻¹ | Expected value λ [2, 4]: 0.416 | Number of positives [2, 4]: 16 | Positive ratio [2, 4]: 0.340 | Concentration (extracellular vesicles having MMP14 activity) [2, 5]: 9.85e+09 mL⁻¹ | Expected value λ [2, 5]: 0.816 | Number of positives [2, 5]: 29 | Positive ratio [2, 5]: 0.558 | Concentration (extracellular vesicles having MMP14 activity) [2, 6]: 9.03e+09 mL⁻¹ | Expected value λ [2, 6]: 1.293 | Number of positives [2, 6]: 37 | Positive ratio [2, 6]: 0.725 | Concentration (extracellular vesicles having MMP14 activity) [2, 7]: 9.01e+09 mL⁻¹ | Expected value λ [2, 7]: 1.910 | Number of positives [2, 7]: 23 | Positive ratio [2, 7]: 0.852 | Concentration (extracellular vesicles having MMP14 activity) [2, 8]: 1.04e+10 mL⁻¹ | Expected value λ [2, 8]: 0.047 | Positive ratio [2, 8]: 0.046 | Concentration (extracellular vesicles having MMP14 activity) [2, 9]: 8.68e+09 mL⁻¹ | Expected value λ [2, 9]: 3.296 | Number of positives [2, 9]: 26 | Positive ratio [2, 9]: 0.963 | Number of positives ([2]; Example 32, SPG pore 10 μm, EV 5 μg/mL, reporter 5 μM, 37° C., 4 h, droplet diameter <3 μm): 8 | average of the extracellular vesicle concentrations ([2]; Example 32, all droplet diameter ranges, reaction solution 5.0 μg of protein/mL): 9.5e+09 mL⁻¹
